# In the supplement of paper PMC5998384:
# What was measured:
# HeLa Kyoto [1] = assay: solubility in G1/S (NP-40 vs SDS abundance) (log2 ratio); higher = more soluble; settings: cell cycle stage: G1/S
# HeLa Kyoto [2] = assay: melting temperature (median over replicates), in situ; higher = more thermally stable
# HeLa Kyoto [3] = assay: solubility change mitosis vs G1/S (difference of NP-40 vs SDS log2 ratios) (log2 ratio difference); higher = more soluble in mitosis
# HeLa Kyoto [4] = assay: thermal stability score vs G1/S (z-score of summed log2 fold changes over temperatures); higher = more thermally stable than in G1/S
# [5] = cell cycle stage: early G1 (4.5 h after nocodazole release)
# 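Throughout, for melting temperature (median over replicates), in situ: HeLa Kyoto cells synchronized by double thymidine or nocodazole block, proteins quantified by TMT10plex mass spectrometry, three independent biological replicates.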
# 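Throughout, for solubility change mitosis vs G1/S (difference of NP-40 vs SDS log2 ratios): synchronized HeLa Kyoto cells (double thymidine block for G1/S, nocodazole release for mitosis), protein amounts in NP-40 versus SDS lysates quantified by mass spectrometry, three biological replicates.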
# 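Throughout, for solubility in G1/S (NP-40 vs SDS abundance): HeLa Kyoto cells arrested at G1/S by double thymidine block, proteins quantified by TMT10plex mass spectrometry in mild NP-40 versus SDS extracts, three biological replicates.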
# 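Throughout, for thermal stability score vs G1/S (z-score of summed log2 fold changes over temperatures): synchronized HeLa Kyoto cells, proteins quantified by TMT10plex mass spectrometry, three biological replicates, mitosis taken 0.5 h after nocodazole release, G1/S directly after double thymidine block.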
Sequence,solubility in G1/S (log2) (HeLa Kyoto [1]),melting temperature (HeLa Kyoto [2]; cell cycle stage: G1/S) [°C],melting temperature (HeLa Kyoto [2]; cell cycle stage: mitosis) [°C],solubility change mitosis (log2) (HeLa Kyoto [3]),thermal stability score (HeLa Kyoto [4]; [5]),thermal stability score (HeLa Kyoto [4]; cell cycle stage: mitosis)
MENEPDHENVEQSLCAKTSEEELNKSFNLEASLSKFSYIDMDKELEFKNDLIDDKEFDIPQVDTPPTLESILNETDDEDESFILEDPTLLNIDTIDSHSYDTSSVASSDSGDRTNLKRKKKLPDSFSLHGSVMRHSLLKGISAQIVSAADKVDAGLPTAIAVSSLIAVGTSHGLALIFGKDQNQALRLCLGSTSVGGQYGAISALSINNDCSRLLCGFAKGQITMWDLASGKLLRSITDAHPPGTAILHIKFTDDPTLAICNDSGGSVFELTFKRVMGVRTCESRCLFSGSKGEVCCIEPLHSKPELKDHPITQFSLLAMASLTKILVIGLKPSLKVWMTFPYGRMDPSSVPLLAWHFVAVQNYVNPMLAFCRGDVVHFLLVKRDESGAIHVTKQKHLHLYYDLINFTWINSRTVVLLDSVEKLHVIDRQTQEELETVEISEVQLVYNSSHFKSLATGGNVSQALALVGEKACYQSISSYGGQIFYLGTKSVYVMMLRSWRERVDHLLKQDCLTEALALAWSFHEGKAKAVVGLSGDASKRKAIVADRMVEILFHYADRALKKCPDQGKIQVMEQHFQDMVPVIVDYCLLLQRKDLLFSQMYDKLSENSVAKGVFLECLEPYILSDKLVGITPQVMKDLIVHFQDKKLMENVEALIVHMDITSLDIQQVVLMCWENRLYDAMIYVYNRGMNEFISPMEKLFRVIAPPLNAGKTLTDEQVVMGNKLLVYISCCLAGRAYPLGDIPEDLVPLVKNQVFEFLIRLHSAEASPEEEIYPYIRTLLHFDTREFLNVLALTFEDFKNDKQAVEYQQRIVDILLKVMVENSDFTPSQVGCLFTFLARQLAKPDNTLFVNRTLFDQVLEFLCSPDDDSRHSERQQVLLELLQAGGIVQFEESRLIRMAEKAEFYQICEFMYEREHQYDKIIDCYLRDPLREEEVFNYIHNILSIPGHSAEEKQSVWQKAMDHIEELVSLKPCKAAELVATHFSGHIETVIKKLQNQVLLFKFLRSLLDPREGIHVNQELLQISPCITEQFIELLCQFNPTQVIETLQVLECYRLEETIQITQKYQLHEVTAYLLEKKGDIHGAFLIMLERLQSKLQEVTHQGENTKEDPSLKDVEDTMVETIALCQRNSHNLNQQQREALWFPLLEAMMAPQKLSSSAIPHLHSEALKSLTMQVLNSMAAFIALPSILQRILQDPVYGKGKLGEIQGLILGMLDTFNYEQTLLETTTSLLNQDLHWSLCNLRASVTRGLNPKQDYCSICLQQYKRRQEMADEIIVFSCGHLYHSFCLQNKECTVEFEGQTRWTCYKCSSSNKVGKLSENSSEIKKGRITPSQVKMSPSYHQSKGDPTAKKGTSEPVLDPQQIQAFDQLCRLYRGSSRLALLTELSQNRSSESYRPFSGSQSAPAFNSIFQNENFQLQLIPPPVTED [VPS8],-0.292,52.2,50.1,-0.056,0.78,1.34
MELRVLLCWASLAAALEETLLNTKLETADLKWVTFPQVDGQWEELSGLDEEQHSVRTYEVCDVQRAPGQAHWLRTGWVPRRGAVHVYATLRFTMLECLSLPRAGRSCKETFTVFYYESDADTATALTPAWMENPYIKVDTVAAEHLTRKRPGAEATGKVNVKTLRLGPLSKAGFYLAFQDQGACMALLSLHLFYKKCAQLTVNLTRFPETVPRELVVPVAGSCVVDAVPAPGPSPSLYCREDGQWAEQPVTGCSCAPGFEAAEGNTKCRACAQGTFKPLSGEGSCQPCPANSHSNTIGSAVCQCRVGYFRARTDPRGAPCTTPPSAPRSVVSRLNGSSLHLEWSAPLESGGREDLTYALRCRECRPGGSCAPCGGDLTFDPGPRDLVEPWVVVRGLRPDFTYTFEVTALNGVSSLATGPVPFEPVNVTTDREVPPAVSDIRVTRSSPSSLSLAWAVPRAPSGAVLDYEVKYHEKGAEGPSSVRFLKTSENRAELRGLKRGASYLVQVRARSEAGYGPFGQEHHSQTQLDESEGWREQLALIAGTAVVGVVLVLVVIVVAVLCLRKQSNGREAEYSDKHGQYLIGHGTKVYIDPFTYEDPNEAVREFAKEIDVSYVKIEEVIGAGEFGEVCRGRLKAPGKKESCVAIKTLKGGYTERQRREFLSEASIMGQFEHPNIIRLEGVVTNSMPVMILTEFMENGALDSFLRLNDGQFTVIQLVGMLRGIASGMRYLAEMSYVHRDLAARNILVNSNLVCKVSDFGLSRFLEENSSDPTYTSSLGGKIPIRWTAPEAIAFRKFTSASDAWSYGIVMWEVMSFGERPYWDMSNQDVINAIEQDYRLPPPPDCPTSLHQLMLDCWQKDRNARPRFPQVVSALDKMIRNPASLKIVARENGGASHPLLDQRQPHYSAFGSVGEWLRAIKMGRYEESFAAAGFGSFELVSQISAEDLLRIGVTLAGHQKKILASVQHMKSQAKPGTPGGTGGPAPQY [EPHB4],0.0967,49.4,48.9,-0.108,1.38,-0.755
